Laboratory results reported in the nanobody polyreactivity screen of Harvey et al. (2022).

Assay: yeast display, Sf9 membrane polyspecificity reagent, FACS + sequencing; frameworks hold sequencing errors
Procedure, shortened: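 Using colony PCR, genes from sorted yeast display clones were amplified, then sequenced on MiSeq at 2 × 250 and filtered by CDR length. The clones had been stained with 10% biotinylated, detergent-solubilized Sf9 membrane reagent for 1 hour at 4 °C and sorted by FACS into low and high (top ~1%) gates on anti-HA and streptavidin fluorescence. Polyreactivity labels come from the gate of origin.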

Question: With “QVQLVESGGGLVQAGGILRISCAASGFIFYPYAMGWYRQAPGKERELVATIDGGGSTYYADSVKGRFTISRDNAKNTVYLQMNSLKPEDSAVYYCDASQWSNYDNWGQGNQVTVSS” as the sequence, how does the “polyreactivity (PSR sort gate)” value read?
Answer: low polyreactivity

Question: With “QVQLVESGGGLVQAGGSLRLSCAASGFIFEYYVMGWYRQAPGKERELVAAISGSGGSTNYADSVKGRFTISRDNAKNTVYLQMNSLKPEDTAVYYCAARYYYFSANIFRYYYWGQGTQVTVSS” as the sequence, how does the “polyreactivity (PSR sort gate)” value read?
Answer: high polyreactivity

Question: Which “polyreactivity (PSR sort gate)” value does the source give for “QVQLVESGGGLVQAGGSLRLICAASGFILKPNAMGWYRQAPGKERELVAAISWSSGSTYYADSVKGRFTISRDNAKNTVYLQMNSLKPEDTAVYYCAADYFVYPVDWYDYWGQGTQVTVSS” here?
Answer: low polyreactivity

Question: Which “polyreactivity (PSR sort gate)” value does the source give for “QVQLVESGGGLVQAGGSLRLSCAPSGRTFPYYAIGSYRQAPGKERELVARITGSGTSTYYADSVKGRFTISRDNAKNTVYLQMNSLKPEDTAVYYCAAPKYGSYYIADYEYWGQGTQVTVSS” here?
Answer: low polyreactivity

Question: For “QVQLVESGGGLVQAGGSLRLSCAASGITLYFYAMGWYRQAPGKERELVAAISRGGRTYYADSVKGRFTISRDNAKNTVYLQMNSLKPEDTAVYYCAARYTSEYSAFDYWGQGTQVTVSS”, which “polyreactivity (PSR sort gate)” value is on record?
Answer: low polyreactivity

Question: For “QVQLVESGGGLVQAGGSLRLSCAASGFTFYHNAMGWYRPAPGKERELVAAITWDSGSTYYADSVKGRFTISRDNAKNTAYLQMNSLKPEDPAVYYCAADIASGYYWYDYWGQGTQVTVSS”, which “polyreactivity (PSR sort gate)” value is on record?
Answer: low polyreactivity

Question: For “QVQLVESGGGLVQAGGSLRLSCAASGRTSYRDAMGWYRQAPGKESEFVAAISKSGTSTYYADSVKGRFTISRDNAKNTVYVQMYRLKPEDTAVYYCAAITGVGLRVNSGIGFYYWGQGTQVTVSS”, which “polyreactivity (PSR sort gate)” value is on record?
Answer: high polyreactivity

Question: For “QVQLVESGGGLVQAGGSLRLSCAASGIIFAYYAMGWYRQAPGKERELVAAISWNSGYTYYADSVKGRFTISRDNAKNTVYLQMNSLKPEDSAVYYCAAESYYSYSYYRPYEYYYWGQGTQLTVSS”, which “polyreactivity (PSR sort gate)” value is on record?
Answer: high polyreactivity

Question: Which “polyreactivity (PSR sort gate)” value does the source give for “QVQLVESGGGLVQAGGSLRLSCAASGRTFYYYGMGWYRQAPGKERELVAAINRGDSTKYADSVKGRFTISRDNAKNTVYLQMNSLKPEDTAVYYCNARLRASFARFIYEYWGQGTQVTVSS” here?
Answer: low polyreactivity

Question: Which “polyreactivity (PSR sort gate)” value does the source give for “QVQLVESGGGLVQAGGSLRLSCAASGSTFKANAMGWYRQAPGKERELVASIRFSAGSTYYADSVKGRFTISRDNAKNTVYLQMNSLKPEDTAVYYCAAGRHVLKRRYDYWGQGTQVTVSS” here?
Answer: low polyreactivity

Question: Which “polyreactivity (PSR sort gate)” value does the source give for “QVQLVESGGGLVQAGGSLRLSCAASGSTFYYYAMGWYRQAPGKERELVASISSAGNTNYADSVKGRFTISRDNAKNTVYLQMNSLKPEDTAVYYCAARYSGHPRYYYYWGQGTQVTVSS” here?
Answer: low polyreactivity

Question: With “QVQLVESGGGLVQAGGSLRLSCAASGGIFAIYAMGWYRQAPGKEREFVATISWRGGSTYYADSVKGRFTISRDNAKNTVYLQMNSLKPEDTAVYYCAAPHFSYSGGTHDYWGQGTQVTVSS” as the sequence, how does the “polyreactivity (PSR sort gate)” value read?
Answer: high polyreactivity

Question: With “QVQLVESGGGLVQAGGSLRLICAASGFTFASNDMGWYRQAPGKERELVAAITKGGGRTYYADSVKGRFTISRDNAKNTVYFQMNSLKPEETAVYYCAGRQLIKYDYWGQGTQVTVSS” as the sequence, how does the “polyreactivity (PSR sort gate)” value read?
Answer: low polyreactivity

Question: Which “polyreactivity (PSR sort gate)” value does the source give for “QGQLVESGGGLVQAGGSLRLSCAASGGTFLWNAMGWYRQAPGKERELVAAIRWSGARTYYADSVKGRFTISRDNAKNTVYLQMNSLKPEDTAVYYCASENYWYWPYNGMYYWGQGTQVTVSS” here?
Answer: high polyreactivity

Question: For “QVQLLESGGGLVQAGGSLRLSCAASGRIFYRYAMGWYRKAPGKERELVPAISRTGSRTYYADSVKGRFTISRDNAKNTVYLQMNSLKPEDTAVYYCNKVSAPAEFRSRGYWGQGTQVTVSS”, which “polyreactivity (PSR sort gate)” value is on record?
Answer: high polyreactivity

Question: For “QVQLVESGGGLVQAGGSLRLSCAASGIIFYHYAMGWYRQPPGKERELVAAITWSGGTTYYADSVKGRFTISRDNAKNTVYLQMNSMKPEDTAVYYCNADYVPYGFDYWGQGTQVTVSS”, which “polyreactivity (PSR sort gate)” value is on record?
Answer: low polyreactivity

Question: With “QVQLVESGAGLVQAGGSLRLSCAASGRTFINNVMGWYRQAPGKERELVAAINSGSSTKYADSVKRRFTISRDNAKNTVYLQMNSLKPEDTAVYYCAAELWYFSEIGRMDYWGQGTIVTVSS” as the sequence, how does the “polyreactivity (PSR sort gate)” value read?
Answer: high polyreactivity

Question: For “QVQVVESGGGLVPAGGSLRLSCAASGRIFADNDMGWYRQAPGKERELVAGISSGGGTYADSVKGRFSISRDNAKNTVSVQTNSPKPEDTAVHYCNALHAYYVLTPYDYWGQGTQVTVSS”, which “polyreactivity (PSR sort gate)” value is on record?
Answer: low polyreactivity

Question: Which “polyreactivity (PSR sort gate)” value does the source give for “QVQLVESGGGLVQAGGSLRLSCAASGRTFYSNAMGWYRQAPGKERELVAGISKRGTITYYADSVKGRFTISRDNAKNTVYLQMNSLKPEDTAVYYCAVGRPSGWSYYTGGDYWGQGTQVTVSS” here?
Answer: high polyreactivity

Question: For “QVQLVESGGGLVQAGGSLRLSCAASGFIFRDYAMGWYRQAPGKERELVATISSS”, which “polyreactivity (PSR sort gate)” value is on record?
Answer: low polyreactivity

Question: With “QVQLVESVGGLVQAGGSLRLSCAASGRTFNYYARGWYRQAPGKERELVAAISWSGTPTYYADSVKGRFTISRDNAKNTVYLQMNSLKPEDTAVYYCAAYLVSYPRGNYIRYDYWGQGTQVTVSS” as the sequence, how does the “polyreactivity (PSR sort gate)” value read?
Answer: low polyreactivity

Question: With “QVQLVESGGGLVQAGGSLRLSCAASGRTFSVYAMGWYRQAPGKEREFVATISYSGVRTSYADSVKGRFTISRDNAKNTGYLQMNSLKPEDTAVYYCNARTYYPVYYRDGGYWGQGTQVTVSS” as the sequence, how does the “polyreactivity (PSR sort gate)” value read?
Answer: high polyreactivity

Question: Which “polyreactivity (PSR sort gate)” value does the source give for “QVQLVESGGGLVQAGGSLRLSCAASGIIFYYYTIGWYRPAPGKERELVASITWSGGGSTYYADSVKGRFTISRDNAKNTVYLQMNCLNPEDTAVYYCNADEYYSYYYWGQGTQVTVSS” here?
Answer: low polyreactivity

Question: For “QVQLVESGGGLVQAGGSLSLSWAASGFIFRLYAMGWYRQAPGKERELVSGITQRGGRTYYADSLKGRFTISRDNANNTVYLQMNSLKPEDTAVYYCAADRCEYVYWGQGTQVTVSS”, which “polyreactivity (PSR sort gate)” value is on record?
Answer: high polyreactivity

Question: With “QVQQQESGGGQVQAGGSLRLSCAASGTIFLYAFLGRYRQAPGKERELVAAIDVGTTTNYADSVKGRFTIRRDNANNTVYLQMNSLKPEDTAVYYCAATLGYLDDLGYWGQGTQVTVSS” as the sequence, how does the “polyreactivity (PSR sort gate)” value read?
Answer: low polyreactivity

Question: Which “polyreactivity (PSR sort gate)” value does the source give for “QVQLVESGGGLVQAGGSLRLSCAASGFTFRFYAMGWYRQAPGKETELVAAISSSGSRTYYADSVKGRFTISRDTAKNTVYFQMHSLKPEDTAVYYCNTVTSQDRYDYWGQGTHVTVSS” here?
Answer: high polyreactivity

Question: Which “polyreactivity (PSR sort gate)” value does the source give for “QVQLVESGGGLVQAGGSLRLSCAASGSIFYGYAMGWYRQAPGKERELVAGISNGGSTNYADSVKGRFTISRDNAKNTVYLQLNSLKPEDTAVYYCNATYYSAYSYLYGYWGQGTQVTVSS” here?
Answer: low polyreactivity

Question: For “QVQLVESGGGLVQAGGSLRLSCAASGSTFTWNVMGWYREAPGKERELVAAIDGSGGDTYYADSVKGRFTISRDHAKNTVYLQMNSLNPEDTAVYYCAAEDAAAYSENDYWGQGTQVTVSS”, which “polyreactivity (PSR sort gate)” value is on record?
Answer: low polyreactivity

Question: With “QVQLVESGGGLVQSGGSLRLSSAAYGNTFFPYTIGRYRQAPGKERELVAAISWNGGTTYYADSVKGRFTISRDNAKNTVYLQMISLKPEDSAVYYCAAPRASGYYWGQGTQVTVSS” as the sequence, how does the “polyreactivity (PSR sort gate)” value read?
Answer: high polyreactivity

Question: Which “polyreactivity (PSR sort gate)” value does the source give for “QVQLVESGGGLVQAGGSLRLSCAASGSIVDYNAMGWYRQPPGKERELVAAISSGGSTYYADSVKGRFTISRDNAKNTVYLQMNSLKPEDTAVYYCAVKFWLVIQFDYWGQGTQVTVSS” here?
Answer: low polyreactivity

Question: Which “polyreactivity (PSR sort gate)” value does the source give for “QVQHVESGGGLVQAGGSLRLSCAASGLTFAGYTMGWYRQAPGKERELVAAITRGGGRTYYADSVKGRFTISRDNAKNTVYLQMNSLKPEDTAVYYCATVSQYRGYYWGQGTQVTVSS” here?
Answer: high polyreactivity

Question: For “QVQLVESGGGLVQAGGSLRLSCAASGSTFRYYTMGWYRQAPGKERELVADITIGGSTYYADSVKGRFTISRDNSKNSVYLQMYSLKPEDTAVYYCAARSTGGRIFATGVAYAYWGQGTQVTVSS”, which “polyreactivity (PSR sort gate)” value is on record?
Answer: low polyreactivity

Question: With “QVQLVESGGGLVQAGGSLRLSCAASGSIFKRNAMGWYRQAPGKERELVASISSGGSTHYADSVKGRFTISRDNAKNTVYFQMNSLKPEDTAVYYCAATSIRWSVGSFRRDYWGQGTQVTVSS” as the sequence, how does the “polyreactivity (PSR sort gate)” value read?
Answer: low polyreactivity

Question: With “QVKLVESGGGLVQAGGSLRLSCAASGSTFVVNAMGCYRQAPGKERELVAAITQSGGSTFYADSVKGRFTISRDNAKNTVYLQMNSLKPEDTAVYYCAADTYYYYWFACYTEYDYWGQGTQVTVSS” as the sequence, how does the “polyreactivity (PSR sort gate)” value read?
Answer: low polyreactivity

Question: With “QVQLVESGGGLVQAGGSLRLSCAASGSIFYQNAMGWYRQAPGKERELVAAITWRSGSTYYADSVKGRFTISRDNAKNTVDLQMNSLKPEDTAVYYCAADLLISPEFYYWGQGTQVTVSS” as the sequence, how does the “polyreactivity (PSR sort gate)” value read?
Answer: high polyreactivity

Question: With “QVQLVESGGGLVQAGGSLRLSCAASGSPFRGNAMGWYRQAPGKEREFVAAITVSCGSTYYADSVKGRFTISRDNAKNNVYLQMKSLNPEDTAVYYCAARYLRYSSKTIQNEDYWGQGTQVTVSS” as the sequence, how does the “polyreactivity (PSR sort gate)” value read?
Answer: high polyreactivity

Question: Which “polyreactivity (PSR sort gate)” value does the source give for “QVQLVDSGGGLVQAGGSLRLSCASSGSTTVLYAKGWYRQAPGKEREMVAAISRSGGSTYYADSVKGRFTISRDNAKYTVYLQMNSLKPEDTAVYYCAARVPFSPYLRLFDYWGQGTQVTVSS” here?
Answer: low polyreactivity

Question: For “QVQLVESGAGLVKAGGILRLSCAASGFTFYGYAMGWYRQAPGKERELVAAITFRGDRTYYADSVKGRFTISRDNAKNTVYLQMNSLIPEDTAVYYCAAERPSGWYSYLSLYIVRRGYWGQGTQVSVSS”, which “polyreactivity (PSR sort gate)” value is on record?
Answer: low polyreactivity

Question: Which “polyreactivity (PSR sort gate)” value does the source give for “QVQLVESVGGLVQAGGSLRLSCAASGSIFGYYAMGWYRPAPGKERELVATITWGGGSTYADSVKGRFTISRDNAKNTVYLQMNSLKPEDTAVYYCNAGYRYTSAQVTWEYDYWGQGTQVTVSS” here?
Answer: low polyreactivity

Question: Which “polyreactivity (PSR sort gate)” value does the source give for “QVQLVESGGGLVQAGGSLRLSCAASGRIFAWNDMGWYRQAPGKESELVAAITSGGSTYYADSVKGRFTISRDNAKNTVYLQMNCLKPEDTAVYYCAAGSAYYSQRYFAYGYDSWGQGTQVTVSS” here?
Answer: low polyreactivity

Question: Which “polyreactivity (PSR sort gate)” value does the source give for “QVQLVESGGGLVQAGGSLRLSCAASGSNFRNNAMGWYRQAPGKERELVASISSSGDSTYADSVKGRFTISRDNAMITVYLQMNSLKPEDTAVYYCARDYLSPYAVDYWGQGTQVTVSS” here?
Answer: low polyreactivity
